The labels stand for the following.
B2: FGFR1c ligand-binding domain (FGFR1c^ecto) (domain or fragment, human)
chain: DNTKPNRMPVAPYWTSPEKMEKKLHAVPAAKTVKFKCPSSGTPNPTLRWLKNGKEFKPDHRIGGYKVRYATWSIIMDSVVPSDKGNYTCIVENEYGSINHTYQLDVVERSPHRPILQAGLPANKTVALGSNVEFMCKVYSDPQPHIQWLKHIEVNGSKIGPDNLPYVQILKTAGVNTTDKEMEVLHLRNVSFEDAGEYTCLAGNSIGLSHHSAWLTVLEALEER
B8: FGF23^ΔSRBS (M149A/N150A/P151A) (ligand, human, UniProt Q9GZV9 25-251, looked up)
chain: YPNASPLLGSSWGGLIHLYTATARNSYHLQIHKNGHVDGAPHQTIYSALMIRSEDAGFVVITGVMSRRYLCMDFRGNIFGSHYFDPENCRFQHQTLENGYDVYHSPQYHFLVSLGRAKRAFLPGAAAPPYSQFLSRRNEIPLIHFNTPIPRRHTRSAEDDSERDPLNVLKPRARMTPAPASCSQELPSAEDNSPMASDPLGVVRGGRVNTHAGGTGPEGCRPFAKFI
B9: FGF23^ΔHBS (R140A/R143A) (ligand, human, UniProt Q9GZV9 25-251, looked up)
chain: YPNASPLLGSSWGGLIHLYTATARNSYHLQIHKNGHVDGAPHQTIYSALMIRSEDAGFVVITGVMSRRYLCMDFRGNIFGSHYFDPENCRFQHQTLENGYDVYHSPQYHFLVSLGAAKAAFLPGMNPPPYSQFLSRRNEIPLIHFNTPIPRRHTRSAEDDSERDPLNVLKPRARMTPAPASCSQELPSAEDNSPMASDPLGVVRGGRVNTHAGGTGPEGCRPFAKFI

In one experiment the target is FGFR1c (Homo sapiens) (UniProt P11362). The note with it: cited from earlier work.
The target in experiment [1] is T1, shed extracellular domain of αKlotho (αKlotho^ecto) (human, UniProt Q9UEF7 34-981).
T1 sequence (looked up): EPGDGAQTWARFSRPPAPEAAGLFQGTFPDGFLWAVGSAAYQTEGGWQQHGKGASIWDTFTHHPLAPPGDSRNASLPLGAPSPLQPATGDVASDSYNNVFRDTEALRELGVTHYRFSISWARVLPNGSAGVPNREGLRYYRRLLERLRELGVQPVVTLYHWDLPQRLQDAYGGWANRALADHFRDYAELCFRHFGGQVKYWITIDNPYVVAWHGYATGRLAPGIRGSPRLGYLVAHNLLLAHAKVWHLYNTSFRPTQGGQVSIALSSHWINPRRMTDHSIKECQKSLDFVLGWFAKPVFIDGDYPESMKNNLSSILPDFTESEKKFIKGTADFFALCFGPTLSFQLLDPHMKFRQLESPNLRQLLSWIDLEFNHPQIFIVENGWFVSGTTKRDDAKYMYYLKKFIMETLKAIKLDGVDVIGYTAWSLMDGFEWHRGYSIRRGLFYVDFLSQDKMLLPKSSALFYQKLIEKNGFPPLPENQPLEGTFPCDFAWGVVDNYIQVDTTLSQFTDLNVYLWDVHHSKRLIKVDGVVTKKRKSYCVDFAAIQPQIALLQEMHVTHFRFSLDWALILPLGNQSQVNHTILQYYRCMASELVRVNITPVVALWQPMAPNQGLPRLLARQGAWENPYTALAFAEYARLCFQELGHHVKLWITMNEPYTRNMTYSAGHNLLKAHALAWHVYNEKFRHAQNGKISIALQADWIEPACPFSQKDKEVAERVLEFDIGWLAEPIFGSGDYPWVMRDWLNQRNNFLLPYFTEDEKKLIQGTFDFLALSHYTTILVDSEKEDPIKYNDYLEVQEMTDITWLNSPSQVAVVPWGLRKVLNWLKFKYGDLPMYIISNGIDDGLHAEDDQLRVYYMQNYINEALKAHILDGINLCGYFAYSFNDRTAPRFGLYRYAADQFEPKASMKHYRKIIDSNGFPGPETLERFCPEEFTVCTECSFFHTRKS
The experiment in a line: SEC-MALS. A general note: Size exclusion chromatography separates by hydrodynamic size, large species first.

For the experiment “FGF23^ΔHBS (R140A/R143A)”, the target named is B9. Put plainly: SEC-MALS.
In experiment [2] the target is B8. The experiment in a line: SEC-MALS.
Experiment [3] deals with B2. Put plainly: SEC-MALS.

Data on 10 molecules can be found in article PMC6007875 (Nature, 2018).

What is called Kd is the constant that tells how readily two partners part at equilibrium. For orientation: stoichiometry N means the number of molecules, sites or subunits per partner or assembly.

Chain of FGFR1c (Homo sapiens) (P11362 22-376): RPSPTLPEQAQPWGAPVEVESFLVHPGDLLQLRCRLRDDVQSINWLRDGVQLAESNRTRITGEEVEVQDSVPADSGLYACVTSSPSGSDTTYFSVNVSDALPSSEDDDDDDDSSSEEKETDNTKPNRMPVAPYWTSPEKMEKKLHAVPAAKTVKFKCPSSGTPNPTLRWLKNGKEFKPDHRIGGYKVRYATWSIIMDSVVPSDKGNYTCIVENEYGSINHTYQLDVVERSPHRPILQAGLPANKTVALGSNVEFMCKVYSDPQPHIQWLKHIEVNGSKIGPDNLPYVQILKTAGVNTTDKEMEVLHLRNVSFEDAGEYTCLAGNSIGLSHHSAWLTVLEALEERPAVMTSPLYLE

αKlotho (from UniProt Q9UEF7): in the experiment with FGFR1c (Homo sapiens), the Kd was 72 nM.

B1: FGFR1c^ΔHBS (K160Q/K163Q), ecto (domain or fragment, human)
chain: DNTKPNRMPVAPYWTSPEQMEQKLHAVPAAKTVKFKCPSSGTPNPTLRWLKNGKEFKPDHRIGGYKVRYATWSIIMDSVVPSDKGNYTCIVENEYGSINHTYQLDVVERSPHRPILQAGLPANKTVALGSNVEFMCKVYSDPQPHIQWLKHIEVNGSKIGPDNLPYVQILKTAGVNTTDKEMEVLHLRNVSFEDAGEYTCLAGNSIGLSHHSAWLTVLEALEER
On to B1, for which the binding result in experiment [1] is recorded as “binds”. For B2, the “stoichiometry N” value in experiment [1] was determined as 1. Also, the binding result (in the experiment with FGF23^ΔHBS (R140A/R143A); in experiment [2]) was “binds” throughout.

B3: FGFR1c^ΔSLBS’ (V221D), ecto (domain or fragment, human)
chain: DNTKPNRMPVAPYWTSPEKMEKKLHAVPAAKTVKFKCPSSGTPNPTLRWLKNGKEFKPDHRIGGYKVRYATWSIIMDSVDPSDKGNYTCIVENEYGSINHTYQLDVVERSPHRPILQAGLPANKTVALGSNVEFMCKVYSDPQPHIQWLKHIEVNGSKIGPDNLPYVQILKTAGVNTTDKEMEVLHLRNVSFEDAGEYTCLAGNSIGLSHHSAWLTVLEALEER
With B3, the binding result in experiment [1] is reported as “binds”.

B4: FGFR1c^ΔSLBS (I203E), ecto (domain or fragment, human)
chain: DNTKPNRMPVAPYWTSPEKMEKKLHAVPAAKTVKFKCPSSGTPNPTLRWLKNGKEFKPDHREGGYKVRYATWSIIMDSVVPSDKGNYTCIVENEYGSINHTYQLDVVERSPHRPILQAGLPANKTVALGSNVEFMCKVYSDPQPHIQWLKHIEVNGSKIGPDNLPYVQILKTAGVNTTDKEMEVLHLRNVSFEDAGEYTCLAGNSIGLSHHSAWLTVLEALEER
Consider B4, for which, in experiment [1], the binding result was “binds”.

B5: FGFR1c^ΔHBS’ (K207Q/R209Q), ecto (domain or fragment, human)
chain: DNTKPNRMPVAPYWTSPEKMEKKLHAVPAAKTVKFKCPSSGTPNPTLRWLKNGKEFKPDHRIGGYQVQYATWSIIMDSVVPSDKGNYTCIVENEYGSINHTYQLDVVERSPHRPILQAGLPANKTVALGSNVEFMCKVYSDPQPHIQWLKHIEVNGSKIGPDNLPYVQILKTAGVNTTDKEMEVLHLRNVSFEDAGEYTCLAGNSIGLSHHSAWLTVLEALEER
In the case of B5, the binding result in experiment [1] was “binds”.

B6: FGFR1c^ΔRRBS (A171D), ecto (domain or fragment, human)
chain: DNTKPNRMPVAPYWTSPEKMEKKLHAVPADKTVKFKCPSSGTPNPTLRWLKNGKEFKPDHRIGGYKVRYATWSIIMDSVVPSDKGNYTCIVENEYGSINHTYQLDVVERSPHRPILQAGLPANKTVALGSNVEFMCKVYSDPQPHIQWLKHIEVNGSKIGPDNLPYVQILKTAGVNTTDKEMEVLHLRNVSFEDAGEYTCLAGNSIGLSHHSAWLTVLEALEER
Take B6: in experiment [1], the binding result is “binds”.

B7: fibroblast growth factor 23 (FGF23) (ligand, human, UniProt Q9GZV9 25-251, looked up)
chain: YPNASPLLGSSWGGLIHLYTATARNSYHLQIHKNGHVDGAPHQTIYSALMIRSEDAGFVVITGVMSRRYLCMDFRGNIFGSHYFDPENCRFQHQTLENGYDVYHSPQYHFLVSLGRAKRAFLPGMNPPPYSQFLSRRNEIPLIHFNTPIPRRHTRSAEDDSERDPLNVLKPRARMTPAPASCSQELPSAEDNSPMASDPLGVVRGGRVNTHAGGTGPEGCRPFAKFI
For B7, the “stoichiometry N” value in experiment [3] and in experiment [1] was 1 in each case. As to B8, in experiment [1], the binding result is “binds”. With B9, the binding result in experiment [1] is “binds”.
